The text below walks through data of patent publication US20240132578A1.

Holding throughout (test): cell-based or functional assay
In assay [1] the target is HIV-1 Env of pseudovirus MGRM-F1-023 (HIV-1).
In assay [2] the target is HIV-1 Env of pseudovirus MGRM-F1-017 (HIV-1).
The target in assay [3] is HIV-1 Env of isolate MGRM-AE-001 (pseudovirus) (HIV-1).
Assay [4] deals with HIV-1 Env of isolate 94 KE 105 (pseudovirus) (HIV-1).
Assay [5] has as its target HIV-1 Env of isolate MG RM-A-005 (pseudovirus) (HIV-1).
In assay [6] the target is HIV-1 Env of isolate MG RM-A-014 (pseudovirus) (HIV-1).
For assay [7], the target named is HIV-1 Env of isolate MGRM-C-022 (subtype C), on pseudovirus (HIV-1).
The target in assay [8] is HIV-1 Env of isolate MGRM-AE-003 (pseudovirus) (HIV-1).
Assay [9] has as its target HIV-1 Env of isolate 92RW009 (subtype A) (HIV-1).
Assay [10] concerns the target HIV-1 Env of isolate MGRM-AE-006 (subtype AE) (HIV-1).
For assay [11], the target named is HIV-1 Env of isolate MGRM-D-020 (pseudovirus) (HIV-1).
Assay [12] has as its target HIV-1 Env of isolate MGRM-Chronic-B-004 (HIV-1).
Assay [13] deals with HIV-1 Env of pseudovirus isolate MGRM-C-028 (clade C) (HIV-1).
In assay [14] the target is HIV-1 Env of pseudovirus isolate MGRM-C-027 (clade C) (HIV-1).
Assay [15] has as its target HIV-1 Env of isolate MGRM-AG-009 (subtype AG) (HIV-1).
The target in assay [16] is HIV-1 Env of isolate MGRM-A-001 (pseudovirus) (HIV-1).
The target in assay [17] is HIV-1 MGRM-D-001 envelope protein (Env) on pseudovirus (HIV-1).
In assay [18] the target is HIV-1 Env of isolate MGRM-D-028 (HIV-1).
In assay [19] the target is HIV-1 94UG103 Env (HIV-1).
Assay [20] addresses HIV-1 Env of isolate MGRM-D-014 (pseudovirus) (HIV-1).
Assay [21] has as its target HIV-1 Env of isolate MGRM-F1-012 (HIV-1).
Assay [22] addresses HIV-1 Env of isolate MGRM-D-011 (pseudovirus) (HIV-1).
Assay [23] concerns the target HIV-1 Env of isolate 92UG024 (pseudovirus) (HIV-1).

PGT-142 (4995_E20) (antibody), sequence (VH): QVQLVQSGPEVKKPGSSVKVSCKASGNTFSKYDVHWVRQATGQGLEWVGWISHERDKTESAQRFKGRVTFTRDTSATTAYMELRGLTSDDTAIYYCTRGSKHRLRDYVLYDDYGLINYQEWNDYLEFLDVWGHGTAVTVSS
PGT-142 (4995_E20) (antibody), sequence (VL): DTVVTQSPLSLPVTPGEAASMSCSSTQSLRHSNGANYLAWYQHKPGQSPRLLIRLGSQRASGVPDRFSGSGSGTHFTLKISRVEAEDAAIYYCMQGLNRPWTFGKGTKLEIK
PGT-144 (4970_K22) (antibody), sequence (VH): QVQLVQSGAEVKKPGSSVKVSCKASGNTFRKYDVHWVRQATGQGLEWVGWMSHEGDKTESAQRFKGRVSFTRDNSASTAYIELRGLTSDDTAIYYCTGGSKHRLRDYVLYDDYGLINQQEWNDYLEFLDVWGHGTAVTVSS
PGT-144 (4970_K22) (antibody), sequence (VL): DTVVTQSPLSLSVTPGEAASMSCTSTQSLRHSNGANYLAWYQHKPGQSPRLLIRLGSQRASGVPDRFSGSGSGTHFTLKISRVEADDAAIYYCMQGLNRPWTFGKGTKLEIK
PGT-143 (4980_N08) (antibody), sequence (VH): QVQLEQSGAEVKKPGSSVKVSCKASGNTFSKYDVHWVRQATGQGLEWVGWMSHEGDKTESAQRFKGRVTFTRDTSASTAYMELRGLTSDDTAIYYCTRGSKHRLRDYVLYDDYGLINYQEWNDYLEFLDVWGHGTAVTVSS
PGT-143 (4980_N08) (antibody), sequence (VL): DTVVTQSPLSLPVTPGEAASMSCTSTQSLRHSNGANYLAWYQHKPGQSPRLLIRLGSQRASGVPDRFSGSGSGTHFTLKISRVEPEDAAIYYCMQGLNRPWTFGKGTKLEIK
PGT-145 (4995_P16) (antibody), sequence (VH): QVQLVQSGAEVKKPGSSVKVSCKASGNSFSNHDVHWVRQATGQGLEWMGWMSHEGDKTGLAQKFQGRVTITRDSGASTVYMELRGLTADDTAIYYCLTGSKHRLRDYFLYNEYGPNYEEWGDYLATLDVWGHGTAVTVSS
PGT-145 (4995_P16) (antibody), sequence (VL): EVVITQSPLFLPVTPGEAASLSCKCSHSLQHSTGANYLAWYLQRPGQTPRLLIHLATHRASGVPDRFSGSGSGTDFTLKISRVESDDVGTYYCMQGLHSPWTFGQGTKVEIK
PGT-141 (4964_G22; 4993_K13) (antibody), sequence (VH): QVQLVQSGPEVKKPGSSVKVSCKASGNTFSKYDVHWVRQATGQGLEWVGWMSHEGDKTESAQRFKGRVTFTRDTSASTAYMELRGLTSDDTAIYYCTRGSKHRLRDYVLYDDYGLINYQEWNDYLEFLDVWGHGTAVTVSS

Consider PGT-144 (4970_K22) (antibody), for which the results for the IC50, pseudovirus neutralization in [1] and in assay [2] were 1.16 µg/mL and greater than 50 µg/mL, respectively.
Consider PGT-142 (4995_E20) (antibody), for which the IC50, pseudovirus neutralization came out at 0.602 µg/mL in assay [1] and 23.5 µg/mL in assay [2].
On the same counts, the results for PGT-145 (4995_P16) (antibody) are 5.88 µg/mL and 0.286 µg/mL.
On the same counts, the results for PGT-143 (4980_N08) (antibody) are 0.972 µg/mL and 26.3 µg/mL.
Consider VRC01 (antibody), for which the IC50 (µg/mL), single-round pseudovirus neutralization in assay [3] turned out to be 0.167 µg/mL; in [4] it was 0.499 µg/mL; in assay [5] it was 0.095 µg/mL; in assay [6], 0.135 µg/mL; in assay [8], 0.685 µg/mL. Besides, the IC50, pseudovirus neutralization is 0.392 µg/mL in assay [1], 1.08 µg/mL in [2] and 0.187 µg/mL in assay [9]. Besides, in assay [7], the IC50, single-round pseudovirus neutralization is 13 µg/mL.
5147_N06 (PGT-130) (antibody): the IC50, pseudovirus neutralization was 0.009 µg/mL in assay [10]; greater than 50 µg/mL in [13]; 0.008 µg/mL in [14]; 9.46 µg/mL in [15]; 0.635 µg/mL in assay [19]. Also, the IC50 (µg/mL), pseudovirus neutralization was 24.7 µg/mL in assay [11]; 0.01 µg/mL in assay [12]; greater than 50 µg/mL in [16]; 0.825 µg/mL in [18]; 0.061 µg/mL in assay [20]; greater than 50 µg/mL in assay [21]. In addition, the results for the IC50 (µg/mL), pseudovirus neutralization in assay [22] and in assay [23] were 0.019 µg/mL and greater than 50 µg/mL, respectively. The substance further registered an IC50 (ug/mL), pseudovirus neutralization in assay [17] greater than 10 µg/mL.
As for PGT-141 (4964_G22; 4993_K13) (antibody), the values for the IC50, pseudovirus neutralization in assay [1] and in assay [2] were 0.307 µg/mL and 30.8 µg/mL, respectively.
